Each block holds one binder with its values, some of them ahead of it. Ends that are not written are not given here. * marks the point of attachment. Biotin = O=C1N[C@H]2[C@H](CS[C@H]2CCCCC(=O)*)N1
How the values were obtained:
[1] = molecular target: T1, His-PDK1 (Myc-PDK1 with an N-terminal hexahistidine sequence, from Sf21 insect cells) (human, UniProt O15530 1-556); assay: SPR, His-PDK1 over the biotinylated peptide on Sensor Chip SA, steady state
T1 construct: Purified by Ni-NTA agarose, >90% homogeneous; also called His-tagged PDK1
T1 sequence: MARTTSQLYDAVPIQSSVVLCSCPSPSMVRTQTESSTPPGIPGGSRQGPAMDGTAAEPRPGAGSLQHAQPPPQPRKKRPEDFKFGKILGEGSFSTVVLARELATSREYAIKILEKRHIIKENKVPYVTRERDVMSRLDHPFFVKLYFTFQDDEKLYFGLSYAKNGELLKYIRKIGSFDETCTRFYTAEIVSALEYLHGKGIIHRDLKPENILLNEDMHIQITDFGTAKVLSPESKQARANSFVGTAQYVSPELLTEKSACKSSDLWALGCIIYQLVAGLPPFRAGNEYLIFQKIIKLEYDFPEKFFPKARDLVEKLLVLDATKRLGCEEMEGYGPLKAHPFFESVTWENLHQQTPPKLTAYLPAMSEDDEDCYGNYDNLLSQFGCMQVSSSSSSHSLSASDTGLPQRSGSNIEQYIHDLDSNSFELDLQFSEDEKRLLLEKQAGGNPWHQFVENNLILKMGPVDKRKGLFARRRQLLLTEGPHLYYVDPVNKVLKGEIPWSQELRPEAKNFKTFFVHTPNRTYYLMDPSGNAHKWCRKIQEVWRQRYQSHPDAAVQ

[2] = molecular target: T1, His-PDK1 (Myc-PDK1 with an N-terminal …); assay: SPR competition: 0.5 µM His-PDK1 mixed with 0-3 µM free Region B peptide, injected over the immobilised peptide
[3] = molecular target: T1, His-PDK1 (Myc-PDK1 with an N-terminal …); assay: SPR competition with the immobilised Region B peptide
GST-MSK1 = molecular target: T2, GST-MSK1 (UniProt O75582 1-802); assay: GST pull-down from 293 cells, PDK1 immunoblot and activity
T2 construct: not shown: glutathione S-transferase (GST) tag
T2 sequence (O75582 whole entry): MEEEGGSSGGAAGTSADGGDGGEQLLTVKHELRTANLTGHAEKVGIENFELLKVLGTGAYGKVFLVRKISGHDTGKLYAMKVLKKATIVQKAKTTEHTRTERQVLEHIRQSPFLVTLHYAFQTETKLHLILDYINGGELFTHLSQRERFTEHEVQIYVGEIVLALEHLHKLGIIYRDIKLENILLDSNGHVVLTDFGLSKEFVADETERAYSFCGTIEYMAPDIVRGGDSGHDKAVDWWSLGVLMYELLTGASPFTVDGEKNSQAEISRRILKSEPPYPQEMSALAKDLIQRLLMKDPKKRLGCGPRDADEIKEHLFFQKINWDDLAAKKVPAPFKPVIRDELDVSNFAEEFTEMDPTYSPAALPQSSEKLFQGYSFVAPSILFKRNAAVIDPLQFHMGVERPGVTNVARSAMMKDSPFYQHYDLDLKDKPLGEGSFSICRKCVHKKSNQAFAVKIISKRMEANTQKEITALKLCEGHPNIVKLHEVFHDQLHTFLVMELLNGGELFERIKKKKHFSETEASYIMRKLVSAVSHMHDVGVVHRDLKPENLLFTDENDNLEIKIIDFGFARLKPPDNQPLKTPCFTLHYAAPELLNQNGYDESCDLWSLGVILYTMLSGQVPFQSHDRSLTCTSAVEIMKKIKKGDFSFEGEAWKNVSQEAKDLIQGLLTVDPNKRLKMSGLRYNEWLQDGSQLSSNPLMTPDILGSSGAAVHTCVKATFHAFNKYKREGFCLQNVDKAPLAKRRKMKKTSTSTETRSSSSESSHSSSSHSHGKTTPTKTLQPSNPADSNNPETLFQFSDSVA

B2: Region B peptide (24 residue synthetic peptide corresponding to Region B of PIF) (peptide)
peptide: REPRILSEEEQEMFRDFDYIADWC
notes: also called free peptide; wild type peptide
Kd [2]: 1500 nM

B3: D978A-Region B peptide (peptide)
peptide: REPRILSEEEQEMFRDFAYIADWC
notes: Range 961-984 is worked out from 'C-terminal 24 amino acids'
fold less strongly than the Region B peptide [3]: 10 fold

The next lines start with the values.

Kd [1]: 800 nM
B1: immobilised and biotinylated 24 residue synthetic peptide corresponding to the Region B peptide (peptide)
peptide: REPRILSEEEQEMFRDFDYIADWC(Biotin)
notes: also called Region B peptide, biotinylated

binding result (GST-MSK1): no binding
B4: endogenous PDK1 of 293 cells (enzyme, UniProt O15530 1-556, looked up)
chain: T1 sequence
notes: Two bands (63 and 66 kDa) both co-purified with GST-PIF; also called PDK1 immunoreactive bands at 63 kDa and 66 kDa
